± gives the standard deviation of the averaged measurements.
system: Saccharomyces cerevisiae; assay: protein stability index of tFT-peptide fusion (C-terminal peptide) (PSI (0-1 scale)); higher = more stable (slower turnover); conditions: genetic background: wild type; temperature: 30 C
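Note: PSI is a weighted mean of sequencing reads over stability bins, variants kept only with over 10 reads, mCherry proximal and sfGFP distal, peptide attached via GGGS linker.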

Row | Sequence | protein stability index
1 | VGGGRRGGVGEG | 0.652 ± 0.021
2 | VGGRAAIGRGGW | 0.706 ± 0.012
3 | VGGRLLFVGKRG | 0.669 ± 0.051
4 | VGGRMGVDEGKG | 0.669 ± 0.02
5 | VGGRRCVCVWWL | 0.674 ± 0.016
6 | VGHGGRRGVGGW | 0.612 ± 0.057
7 | VGICCCKTYCCS | 0.656 ± 0.074
8 | VGIFSLLRCRGE | 0.701 ± 0.035
9 | VGIQQSVVVRLE | 0.6685 ± 0.0034
10 | VGKHNLYSKNWR | 0.66 ± 0.016
11 | VGKSNKYEETHK | 0.747 ± 0.06
12 | VGLGAGGTSLMR | 0.571
13 | VGLGEGGGVGEG | 0.678 ± 0.079
14 | VGLLQRSLAFVL | 0.612 ± 0.031
15 | VGMAGWSRVRWG | 0.715 ± 0.0089
16 | VGMVTADGRLAT | 0.692 ± 0.043
17 | VGNNERDLQQIE | 0.665 ± 0.032
18 | VGRSAAGRLELI | 0.679 ± 0.014
19 | VGSGFGGAGVIG | 0.696 ± 0.045
20 | VGSRWNKELSQS | 0.725 ± 0.081
21 | VGSSPYTVFVSG | 0.747 ± 0.11
22 | VGTRVGCEAGVV | 0.637 ± 0.095
23 | VGVATRGVGGGM | 0.669 ± 0.032

Row | Sequence | protein stability index
24 | VGVGRAALRWYG | 0.6716 ± 0.0035
25 | VGVGRGALRWYG | 0.704 ± 0.014
26 | VGVKLVVEAIRR | 0.6322 ± 0.0039
27 | VGVLRTSRASPH | 0.646 ± 0.031
28 | VGVLSYYTCYEL | 0.689 ± 0.18
29 | VGVSGCVLWYRV | 0.692 ± 0.031
30 | VGWGLGGGVVLV | 0.675 ± 0.047
31 | VGWRGTGCGRVW | 0.688 ± 0.074
32 | VGWRWGRGRAVW | 0.728 ± 0.067
33 | VGWWVAVGWGLG | 0.704 ± 0.067
34 | VGYGTGGAGGVE | 0.766 ± 0.044
35 | VHFFHLCFCEIL | 0.673 ± 0.051
36 | VHLAPPLPPTAT | 0.708 ± 0.021
37 | VHVMSPPPALPV | 0.659 ± 0.013
38 | VHWAALRSVLRG | 0.699 ± 0.047
39 | VIAGSWVAGVSV | 0.655 ± 0.011
40 | VICSIRGYNRLR | 0.711 ± 0.038
41 | VIDQRIDIAYFS | 0.746 ± 0.1
42 | VIEWFVRGRGGG | 0.693 ± 0.01
43 | VIGSSGRVGGLG | 0.6913 ± 0.0028
44 | VILGRGGSICKV | 0.795 ± 0.046
45 | VIYERDSLRGGI | 0.753 ± 0.038
46 | VKGKKREVTDPR | 0.6376 ± 0.0023

Row | Sequence | protein stability index
47 | VKRSGSDGALHR | 0.685 ± 0.021
48 | VKRVYQRFHVKK | 0.666 ± 0.04
49 | VKSAAGPGRRSS | 0.66 ± 0.015
50 | VKSTRRHGRPQS | 0.723 ± 0.057
51 | VKTLNQKCIKKN | 0.719 ± 0.062
52 | VKYSIEVKRKKK | 0.7181 ± 0.0039
53 | VLAHCLFRCEKN | 0.6062 ± 0.001
54 | VLAWVPNFALLP | 0.677 ± 0.063
55 | VLDLVPDFSNGG | 0.65 ± 0.036
56 | VLDVRLGGRCGE | 0.702 ± 0.072
57 | VLEKFFFGLAIL | 0.569 ± 0.014
58 | VLFLGVRCSCLG | 0.533 ± 0.014
59 | VLFLVGLCRDFA | 0.553 ± 0.036
60 | VLFSRFVFLGVL | 0.528 ± 0.0095
61 | VLHQWWCIGLGC | 0.736 ± 0.013
62 | VLKVFIRERRVR | 0.703 ± 0.081
63 | VLLYSGVVKFLQ | 0.586 ± 0.021
64 | VLMSCLFFGIRY | 0.54 ± 0.044
65 | VLPAWSGTHFVG | 0.714 ± 0.017
66 | VLPKQVSEALTL | 0.612 ± 0.024
67 | VLPPLSALAPFD | 0.764 ± 0.029
68 | VLQSTTNPPTSW | 0.631 ± 0.05
69 | VLRFHIRRTQQQ | 0.707 ± 0.012

Row | Sequence | protein stability index
70 | VLRSPHYRPRRE | 0.673 ± 0.055
71 | VLSDFSFPFFVL | 0.669 ± 0.017
72 | VLSVLGLGFWGG | 0.8042 ± 0.0076
73 | VLTGQQSVFGAK | 0.752 ± 0.096
74 | VLVSGRCCRCGF | 0.701 ± 0.048
75 | VMLGGWRVPGER | 0.7754 ± 0.0033
76 | VMNGGCFGWAVG | 0.628 ± 0.058
77 | VMPSICTKYGVN | 0.717 ± 0.13
78 | VMVNTAWERRKR | 0.673 ± 0.065
79 | VMYLSGCFHSQI | 0.659 ± 0.059
80 | VNILKRQKRARG | 0.72 ± 0.052
81 | VNQSCPRPTPFV | 0.67 ± 0.051
82 | VNTPGVDSDPVA | 0.661 ± 0.11
83 | VPACFSYFLASC | 0.68 ± 0.04
84 | VPCILLFSHFKH | 0.619 ± 0.042
85 | VPCPPRRLAPRG | 0.582 ± 0.015
86 | VPDGPAHIPLPL | 0.683 ± 0.065
87 | VPDGVAGRRPDR | 0.679 ± 0.056
88 | VPLIFSTFVSIS | 0.54 ± 0.009
89 | VPLSPPRTPTLY | 0.648 ± 0.12
90 | VPPALPRSPGPP | 0.72 ± 0.069
91 | VPPGVVSSPCPN | 0.661 ± 0.056
92 | VPPHPFFPLPPP | 0.788 ± 0.099

Row | Sequence | protein stability index
93 | VPPKHLYPLPPP | 0.612 ± 0.007
94 | VPPPALPPCPAF | 0.723 ± 0.037
95 | VPPPRLCPERPH | 0.719 ± 0.063
96 | VPPRPAPRLRPP | 0.695 ± 0.07
97 | VPRAPSPCPVSL | 0.71 ± 0.046
98 | VPRSSGAILGFL | 0.637 ± 0.015
99 | VPSGTHHPFTLS | 0.751 ± 0.02
100 | VPSLRSTLPPPL | 0.731 ± 0.051
101 | VPTCFPLSPSPP | 0.714 ± 0.016
102 | VPTLCDQVFLFA | 0.627 ± 0.0086
103 | VPVGSWVGIGGK | 0.692 ± 0.043
104 | VPVSNLCERTAG | 0.648 ± 0.011
105 | VQCRIREELWGG | 0.6919 ± 0.0047
106 | VQGGRNGEGGRG | 0.651 ± 0.081
107 | VQIALTLNSPSL | 0.605 ± 0.058
108 | VQLSISCEPPSN | 0.7391 ± 0.007
109 | VQMKVKKRLNEW | 0.6744 ± 0.0046
110 | VQYITSGASRWG | 0.6309 ± 0.00084
111 | VRAVGSIILPPG | 0.6558 ± 0.00093
112 | VRCAAIKLIGRI | 0.675 ± 0.051
113 | VRCKGLGLAVCA | 0.541 ± 0.062
114 | VRCWGRGSGVGD | 0.666 ± 0.036
115 | VREILKDGIFDP | 0.717 ± 0.043

Row | Sequence | protein stability index
116 | VRERGAGAVAGS | 0.715 ± 0.044
117 | VRERVRRWVGDG | 0.5752 ± 0.0053
118 | VRGGGRARRRGS | 0.7347 ± 0.0044
119 | VRGKSARRSSRR | 0.665 ± 0.029
120 | VRISGLSALPHF | 0.70793 ± 9.5e-05
121 | VRLMARFESFLW | 0.69 ± 0.023
122 | VRPLPAPVQPHP | 0.741 ± 0.019
123 | VRPYPGDDVSWR | 0.693 ± 0.061
124 | VRRGVGAVVFGG | 0.655 ± 0.08
125 | VRRRLRLFLMWG | 0.588 ± 0.0052
126 | VRRVHAMVLLGG | 0.65 ± 0.014
127 | VRTLVGQVWETV | 0.721 ± 0.031
128 | VRVALISDRGKQ | 0.738 ± 0.025
129 | VSADGAGCAVRG | 0.709 ± 0.052
130 | VSAYLKNSGYRE | 0.6955 ± 0.0061
131 | VSAYWFLLFGSV | 0.662 ± 0.13
132 | VSCHSPPVPHDP | 0.702 ± 0.011
133 | VSCVRGFFLFPC | 0.699 ± 0.022
134 | VSEEFAGSGTKS | 0.67 ± 0.064
135 | VSFPHSRLSLTI | 0.747 ± 0.02
136 | VSFSSLLRFCRG | 0.671 ± 0.0091
137 | VSGDLRRWRNSE | 0.673 ± 0.043
138 | VSGEGRGRTTPD | 0.665 ± 0.013

Row | Sequence | protein stability index
139 | VSGFVAALRIFL | 0.657 ± 0.025
140 | VSGGGEWRDAYG | 0.677 ± 0.04
141 | VSGMRRRFGNRL | 0.756 ± 0.11
142 | VSHVRVNESAAN | 0.677 ± 0.0078
143 | VSKVGDMNSGSK | 0.651 ± 0.013
144 | VSLGALFEFRAA | 0.745 ± 0.015
145 | VSLSSLPRRFSP | 0.75 ± 0.04
146 | VSNIVGRSLSCR | 0.688 ± 0.014
147 | VSNVSDSGHPYL | 0.6777 ± 0.0021
148 | VSRHRRLAGMIW | 0.735 ± 0.018
149 | VSRPPPRNPTPP | 0.728 ± 0.078
150 | VSSVSLRVRVLF | 0.564 ± 0.08
151 | VSVFRFALGLQV | 0.563 ± 0.0058
152 | VSVGVPGWYGMI | 0.6336 ± 0.0049
153 | VSVWLGSARWVG | 0.628 ± 0.0086
154 | VSWRGSFQGIYG | 0.685 ± 0.043
155 | VSYLAQSFLPNL | 0.69928 ± 9.6e-05
156 | VSYRLDMHFLYY | 0.6062 ± 0.0046
157 | VTISLGGGGGMQ | 0.684 ± 0.12
158 | VTISLGVGGGMQ | 0.725 ± 0.048
159 | VTRGGKLRRGRV | 0.638 ± 0.089
160 | VTRRIPPRGGPR | 0.72 ± 0.074

From the supplement of paper PMC10724198
